Results: publication PMC9482650, “Quantitative fragmentomics allow affinity mapping of interactomes” (Nature Communications, 2022)

Tests used:
Assay in all cases: holdup assay
Set-up in all cases: key: below the threshold = too weak to quantify, mostly under pKd 3.1 to 4
Settings in all cases: plain residues with an end cap or a label only (N-terminal biotin on a linker: ttds)
APBA2_2, Q99767 = molecular target: T1, APBA2_2, Q99767
T1 sequence (Q99767 654-744, limits assumed, looked up): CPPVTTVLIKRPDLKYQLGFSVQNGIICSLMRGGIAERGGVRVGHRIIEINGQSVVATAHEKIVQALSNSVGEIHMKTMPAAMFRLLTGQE

ARHGEF12, Q9NZN5-2 = molecular target: ARHGEF12, Q9NZN5-2
CARD11, Q9BXL7 = molecular target: T2, CARD11, Q9BXL7
T2 sequence (Q9BXL7 662-765, limits assumed, looked up): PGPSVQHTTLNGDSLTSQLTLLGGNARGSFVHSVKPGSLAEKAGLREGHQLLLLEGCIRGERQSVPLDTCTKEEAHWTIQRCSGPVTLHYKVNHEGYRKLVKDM

DLG2_3, Q15700 = molecular target: DLG2_3, Q15700
GRID2IP_2, A4D2P6 = molecular target: GRID2IP_2, A4D2P6
GRIP1_4, Q9Y3R0 = molecular target: T3, GRIP1_4, Q9Y3R0
T3 sequence (Q9Y3R0 467-571, limits assumed, looked up): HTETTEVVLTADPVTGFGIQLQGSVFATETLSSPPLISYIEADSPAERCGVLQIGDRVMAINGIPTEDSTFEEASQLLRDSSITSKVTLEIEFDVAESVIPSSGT

GRIP1_7, Q9Y3R0 = molecular target: T4, GRIP1_7, Q9Y3R0
T4 sequence (Q9Y3R0 999-1096, limits assumed, looked up): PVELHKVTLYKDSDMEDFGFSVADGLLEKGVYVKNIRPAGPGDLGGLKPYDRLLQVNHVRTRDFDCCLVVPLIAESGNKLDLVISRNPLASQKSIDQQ

HTRA1, Q92743 = molecular target: HTRA1, Q92743
HTRA3, P83110 = molecular target: T5, HTRA3, P83110
T5 sequence (P83110 354-453, limits assumed, looked up): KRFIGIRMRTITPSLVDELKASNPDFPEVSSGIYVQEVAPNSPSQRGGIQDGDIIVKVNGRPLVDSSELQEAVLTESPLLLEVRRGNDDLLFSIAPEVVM

IL16_3, Q14005 = molecular target: IL16_3, Q14005
Inadl_6, Q8NI35 = molecular target: Inadl_6, Q8NI35
LAP2, Q96RT1 = molecular target: LAP2, Q96RT1
LIMK2, P53671 = molecular target: LIMK2, P53671
LIN7A, O14910 = molecular target: T6, LIN7A, O14910
T6 sequence (O14910 103-200, limits assumed, looked up): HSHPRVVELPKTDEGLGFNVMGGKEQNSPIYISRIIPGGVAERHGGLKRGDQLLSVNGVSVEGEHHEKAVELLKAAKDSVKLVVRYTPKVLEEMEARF

MPDZ_10, O75970 = molecular target: T7, MPDZ_10, O75970
T7 sequence (O75970 1624-1722, limits assumed, looked up): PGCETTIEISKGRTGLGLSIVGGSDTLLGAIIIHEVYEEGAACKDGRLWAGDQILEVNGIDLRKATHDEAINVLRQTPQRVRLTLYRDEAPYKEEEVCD

NHERF4_1, Q86UT5-2 = molecular target: NHERF4_1, Q86UT5-2
PCLO, Q9Y6V0 = molecular target: T8, PCLO, Q9Y6V0
T8 sequence (Q9Y6V0 4491-4600, limits assumed, looked up): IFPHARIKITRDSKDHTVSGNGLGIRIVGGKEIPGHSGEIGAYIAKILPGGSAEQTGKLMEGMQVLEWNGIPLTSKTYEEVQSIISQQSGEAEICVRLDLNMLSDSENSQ

PDZD2_2, O15018 = molecular target: T9, PDZD2_2, O15018
T9 sequence (O15018 329-429, limits assumed, looked up): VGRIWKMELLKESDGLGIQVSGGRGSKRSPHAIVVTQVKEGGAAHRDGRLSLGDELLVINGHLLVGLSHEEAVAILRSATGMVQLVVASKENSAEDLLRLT

RADIL, Q96JH8 = molecular target: T10, RADIL, Q96JH8
T10 sequence (Q96JH8 971-1071, limits assumed, looked up): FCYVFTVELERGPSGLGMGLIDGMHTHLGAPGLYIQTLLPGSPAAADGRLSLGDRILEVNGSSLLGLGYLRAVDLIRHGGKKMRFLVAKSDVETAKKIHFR

SHANK1, Q9Y566 = molecular target: T11, SHANK1, Q9Y566
T11 sequence (Q9Y566 658-767, limits assumed, looked up): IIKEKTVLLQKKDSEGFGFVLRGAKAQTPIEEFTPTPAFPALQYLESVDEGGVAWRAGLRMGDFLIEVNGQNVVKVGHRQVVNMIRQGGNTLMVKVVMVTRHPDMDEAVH

SIPA1L2, Q9P2F8 = molecular target: T12, SIPA1L2, Q9P2F8
T12 sequence (Q9P2F8 945-1036, limits assumed, looked up): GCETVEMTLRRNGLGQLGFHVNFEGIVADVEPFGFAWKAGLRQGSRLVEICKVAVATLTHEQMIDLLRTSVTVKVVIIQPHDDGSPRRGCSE

SNTG1, Q9NSN8 = molecular target: T13, SNTG1, Q9NSN8
T13 sequence (Q9NSN8 52-150, limits assumed, looked up): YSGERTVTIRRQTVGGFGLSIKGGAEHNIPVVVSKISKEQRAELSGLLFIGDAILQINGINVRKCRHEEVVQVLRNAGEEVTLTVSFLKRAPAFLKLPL

TJP1_2, Q07157 = molecular target: TJP1_2, Q07157

Measured: pKd

NHERF4_1, Q86UT5-2, sequence (Q86UT5 other isoform, or with tags, fused parts or gaps): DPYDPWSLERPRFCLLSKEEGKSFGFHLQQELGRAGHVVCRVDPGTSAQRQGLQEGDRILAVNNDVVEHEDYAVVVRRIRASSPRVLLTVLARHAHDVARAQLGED
TJP1_2, Q07157, sequence (Q07157 181-274): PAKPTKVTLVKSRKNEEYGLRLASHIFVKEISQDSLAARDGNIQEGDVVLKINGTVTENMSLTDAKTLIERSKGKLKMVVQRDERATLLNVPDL
GRID2IP_2, A4D2P6, sequence (A4D2P6 272-370): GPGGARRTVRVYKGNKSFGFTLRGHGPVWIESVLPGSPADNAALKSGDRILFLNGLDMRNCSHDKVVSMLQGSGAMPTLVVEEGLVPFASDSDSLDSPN
ARHGEF12, Q9NZN5-2, sequence (Q9NZN5 other isoform, or with tags, fused parts or gaps): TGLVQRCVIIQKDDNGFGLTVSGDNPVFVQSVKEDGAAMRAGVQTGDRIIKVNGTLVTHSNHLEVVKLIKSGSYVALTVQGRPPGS
IL16_3, Q14005, sequence (Q14005 1107-1207): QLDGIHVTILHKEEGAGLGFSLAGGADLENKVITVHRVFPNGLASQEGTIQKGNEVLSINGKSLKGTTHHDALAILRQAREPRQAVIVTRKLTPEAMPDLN
LAP2, Q96RT1, sequence (Q96RT1 other isoform, or with tags, fused parts or gaps): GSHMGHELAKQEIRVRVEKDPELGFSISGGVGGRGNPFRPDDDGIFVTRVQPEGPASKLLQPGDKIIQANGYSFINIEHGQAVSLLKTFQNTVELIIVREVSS
Inadl_6, Q8NI35, sequence (Q8NI35 1058-1167): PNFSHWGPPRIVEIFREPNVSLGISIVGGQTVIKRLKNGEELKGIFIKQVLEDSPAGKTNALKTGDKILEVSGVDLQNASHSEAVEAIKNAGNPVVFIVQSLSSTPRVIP
HTRA1, Q92743, sequence (Q92743 360-477): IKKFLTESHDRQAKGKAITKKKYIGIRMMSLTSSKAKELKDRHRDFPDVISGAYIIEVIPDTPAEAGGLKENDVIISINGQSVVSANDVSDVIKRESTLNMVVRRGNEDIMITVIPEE
LIMK2, P53671, sequence (P53671 143-248): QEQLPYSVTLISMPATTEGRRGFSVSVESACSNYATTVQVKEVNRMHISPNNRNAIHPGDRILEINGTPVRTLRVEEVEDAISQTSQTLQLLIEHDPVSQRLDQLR

QRPYRRESEI [KCNJ12, Q14500]
3.82: SNTG1, Q9NSN8
4.65: DLG2_3, Q15700
3.65: ARHGEF12, Q9NZN5-2
4.26: PDZD2_2, O15018
below the threshold: all other assays above

GRLLGLETNV [ARHGEF26, Q96DR7]
4.54: DLG2_3, Q15700
4.95: SNTG1, Q9NSN8
4.12: PDZD2_2, O15018
4.41: LAP2, Q96RT1
4.11: GRIP1_7, Q9Y3R0
below the threshold: all other assays above
